# Patent publication US20060228349A1 (published 2006)
# T1: biotin-Aβ1-20 (biotin (position not given))
# T1 peptide: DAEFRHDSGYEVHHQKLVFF
# Columns and labels:
# [1] = target: T2, Biotinylated ADDL preparations (bADDLs) (N-terminal biotin); assay: BIACORE, bADDL as antigen; column IgG1#1
# T2 construct: Oligomer, number of copies not fixed; also called biotinylated ADDL antigen; high molecular weight 10% bADDL
# [2] = target: T1, biotin-Aβ1-20; assay: BIACORE, biotin-Aβ1-20 as antigen; column IgG1#1
# [3] = target: T2, Biotinylated ADDL preparations (bADDLs); assay: BIACORE, bADDL as antigen; column Fab
# [4] = target: T1, biotin-Aβ1-20; assay: BIACORE, biotin-Aβ1-20 as antigen; column Fab
Binder,Kd [1],Kd [2],Kd [3],Kd [4]
"20C2-1A, affinity matured humanized 20C2, IgG1 humanized A version (antibody, V domains shown, also called SJ-p2-60) VH: QVTLKESGPALVKPTQTLTLTCTFSGFSLSTSGMGVGWIRQPPGKALEWLAHIWWDDDKSYNPSLKSRLTISKDTSKNQVVLTMTNMDPVDTATYYCARRQLGLRSIDAMDYWGQGTTVTVSS VL: DVVMTQSPLSLPVTPGEPASISCRSSQSILHSNGNTYLEWYLQKPGQSPQLLIYKVSNRFSGVPDRFSGSGSGTDFTLKISRVEAEDVGVYYCFQASRVPLTFGQGTKLEIKR",0.075 nM,1.2 nM,–,–
"20C2-3A, affinity matured humanized 20C2, IgG1 humanized A version (antibody, V domains shown, also called SJ-p3-16) VH: QVTLKESGPALVKPTQTLTLTCTFSGFSLSTSGMGVGWIRQPPGKALEWLAHIWWDDDKSYNPSLKSRLTISKDTSKNQVVLTMTNMDPVDTATYYCARRQLGLRSIDAMDYWGQGTTVTVSS VL: DVVMTQSPLSLPVTPGEPASISCRSSQSILHSNGNTYLEWYLQKPGQSPQLLIYKVSNRFSGVPDRFSGSGSGTDFTLKISRVEAEDVGVYYCFQGSFIPGTFGQGTKLEIKR",3.7 nM,1.7 nM,–,–
"20C2-6B, affinity matured humanized 20C2, IgG1 humanized B version (antibody, V domains shown, also called 4P1-22) VH: QVTLKESGPALVKPTQTLTLTCTLSGFSLSTSGMGVGWIRQPPGKALEWLAHIWWDDDKSYNPSLKSRLTISKDTSKNQVVLTMTNMDPVDTATYYCARRQLGLRSIDAMDYWGQGTTVTVSS VL: DVVMTQSPLSLPVTPGEPASISCRSSQSILHSNGNTYLEWYLQKPGQSPQLLIYKVSNRFSGVPDRFSGSGSGTDFTLKISRVEAEDVGVYYCFQSSRVPLTFGQGTKLEIKR",0.053 nM,0.053 nM,–,–
"20C2-10A, affinity matured humanized 20C2, IgG1 humanized A version (antibody, V domains shown, also called 20C2-1GA; SJ-p3-33) VH: QVTLKESGPALVKPTQTLTLTCTFSGFSLSTSGMGVGWIRQPPGKALEWLAHIWWDDDKSYNPSLKSRLTISKDTSKNQVVLTMTNMDPVDTATYYCARRQLGLRSIDAMDYWGQGTTVTVSS VL: DVVMTQSPLSLPVTPGEPASISCRSSQSILHSNGNTYLEWYLQKPGQSPQLLIYKVSNRFSGVPDRFSGSGSGTDFTLKISRVEAEDVGVYYCFQGSRLPVSFGQGTKLEIKR",7.7 nM,84 nM,–,–
"20C2-12A, affinity matured humanized 20C2, IgG1 humanized A version (antibody, V domains shown, also called 4P1-32) VH: QVTLKESGPALVKPTQTLTLTCTFSGFSLSTSGMGVGWIRQPPGKALEWLAHIWWDDDKSYNPSLKSRLTISKDTSKNQVVLTMTNMDPVDTATYYCARRQLGLRSIDAMDYWGQGTTVTVSS VL: DVVMTQSPLSLPVTPGEPASISCRSSQSILHSNGNTYLEWYLQKPGQSPQLLIYKVSNRFSGVPDRFSGSGSGTDFTLKISRVEAEDVGVYYCLQSSLVPLTFGQGTKLEIKR",0.015 nM,1.5 nM,–,–
"20C2-13A, affinity matured humanized 20C2, IgG1 humanized A version (antibody, V domains shown, also called 4p1-20; 4P1-20) VH: QVTLKESGPALVKPTQTLTLTCTFSGFSLSTSGMGVGWIRQPPGKALEWLAHIWWDDDKSYNPSLKSRLTISKDTSKNQVVLTMTNMDPVDTATYYCARRQLGLRSIDAMDYWGQGTTVTVSS VL: DVVMTQSPLSLPVTPGEPASISCRSSQSILHSNGNTYLEWYLQKPGQSPQLLIYKVSNRFSGVPDRFSGSGSGTDFTLKISRVEAEDVGVYYCLQTSNVPLTFGQGTKLEIKR",0.764 nM,3 nM,–,–
"20C2-18A, affinity matured humanized 20C2, IgG1 humanized A version (antibody, V domains shown, also called SJ-p1-9M) VH: QVTLKESGPALVKPTQTLTLTCTFSGFSLSTSGMGVGWIRQPPGKALEWLAHIWWDDDKSYNPSLKSRLTISKDTSKNQVVLTMTNMDPVDTATYYCARRQLGLRSIDAMDYWGQGTTVTVSS VL: DVVMTQSPLSLPVTPGEPASISCRSSQSILHSNGNTYLEWYLQKPGQSPQLLIYKVSNRFSGVPDRFSGSGSGTDFTLKISRVEAEDVGVYYCMQSSFVPLTFGQGTKLEIKR",0.149 nM,1.8 nM,–,–
"20C2-20A, affinity matured humanized 20C2, IgG1 humanized A version (antibody, V domains shown, also called SJ-p3-15) VH: QVTLKESGPALVKPTQTLTLTCTFSGFSLSTSGMGVGWIRQPPGKALEWLAHIWWDDDKSYNPSLKSRLTISKDTSKNQVVLTMTNMDPVDTATYYCARRQLGLRSIDAMDYWGQGTTVTVSS VL: DVVMTQSPLSLPVTPGEPASISCRSSQSILHSNGNTYLEWYLQKPGQSPQLLIYKVSNRFSGVPDRFSGSGSGTDFTLKISRVEAEDVGVYYCFQGSLFPPVFGQGTKLEIKR",6.9 nM,21 nM,–,–
"20C2-24A, affinity matured humanized 20C2, IgG1 humanized A version (antibody, V domains shown, also called SJ-p2-44) VH: QVTLKESGPALVKPTQTLTLTCTFSGFSLSTSGMGVGWIRQPPGKALEWLAHIWWDDDKSYNPSLKSRLTISKDTSKNQVVLTMTNMDPVDTATYYCARRQLGLRSIDAMDYWGQGTTVTVSS VL: DVVMTQSPLSLPVTPGEPASISCRSSQSILHSNGNTYLEWYLQKPGQSPQLLIYKVSNRFSGVPDRFSGSGSGTDFTLKISRVEAEDVGVYYCGQTTLVPLTFGQGTKLEIKR",0.114 nM,1.9 nM,–,–
"20C2-6A Fab fragment (clone 4P1-22) (Fab, V domains shown) VH: QVTLKESGPALVKPTQTLTLTCTFSGFSLSTSGMGVGWIRQPPGKALEWLAHIWWDDDKSYNPSLKSRLTISKDTSKNQVVLTMTNMDPVDTATYYCARRQLGLRSIDAMDYWGQGTTVTVSS VL: DVVMTQSPLSLPVTPGEPASISCRSSQSILHSNGNTYLEWYLQKPGQSPQLLIYKVSNRFSGVPDRFSGSGSGTDFTLKISRVEAEDVGVYYCFQSSRVPLTFGQGTKLEIKR",–,–,42 nM,18 nM
"20C2-1A Fab fragment (clone SJ-p2-60) (Fab, V domains shown) VH: QVTLKESGPALVKPTQTLTLTCTFSGFSLSTSGMGVGWIRQPPGKALEWLAHIWWDDDKSYNPSLKSRLTISKDTSKNQVVLTMTNMDPVDTATYYCARRQLGLRSIDAMDYWGQGTTVTVSS VL: DVVMTQSPLSLPVTPGEPASISCRSSQSILHSNGNTYLEWYLQKPGQSPQLLIYKVSNRFSGVPDRFSGSGSGTDFTLKISRVEAEDVGVYYCFQASRVPLTFGQGTKLEIKR",–,–,85 nM,91 nM
"20C2-2A Fab fragment (clone SJ-p1-18) (Fab, V domains shown) VH: QVTLKESGPALVKPTQTLTLTCTFSGFSLSTSGMGVGWIRQPPGKALEWLAHIWWDDDKSYNPSLKSRLTISKDTSKNQVVLTMTNMDPVDTATYYCARRQLGLRSIDAMDYWGQGTTVTVSS VL: DVVMTQSPLSLPVTPGEPASISCRSSQSILHSNGNTYLEWYLQKPGQSPQLLIYKVSNRFSGVPDRFSGSGSGTDFTLKISRVEAEDVGVYYCFQATRVPLTFGQGTKLEIKR",–,–,28 nM,28 nM
"20C2-5A Fab fragment (clone SJ-p2-1F) (Fab, V domains shown) VH: QVTLKESGPALVKPTQTLTLTCTFSGFSLSTSGMGVGWIRQPPGKALEWLAHIWWDDDKSYNPSLKSRLTISKDTSKNQVVLTMTNMDPVDTATYYCARRQLGLRSIDAMDYWGQGTTVTVSS VL: DVVMTQSPLSLPVTPGEPASISCRSSQSILHSNGNTYLEWYLQKPGQSPQLLIYKVSNRFSGVPDRFSGSGSGTDFTLKISRVEAEDVGVYYCFQSSFVPLTFGQGTKLEIKR",–,–,41 nM,41 nM
"20C2-7A Fab fragment (clone SJ-p2-27) (Fab, V domains shown) VH: QVTLKESGPALVKPTQTLTLTCTFSGFSLSTSGMGVGWIRQPPGKALEWLAHIWWDDDKSYNPSLKSRLTISKDTSKNQVVLTMTNMDPVDTATYYCARRQLGLRSIDAMDYWGQGTTVTVSS VL: DVVMTQSPLSLPVTPGEPASISCRSSQSILHSNGNTYLEWYLQKPGQSPQLLIYKVSNRFSGVPDRFSGSGSGTDFTLKISRVEAEDVGVYYCLNSTTVPLTFGQGTKLEIKR",–,–,435 nM,128 nM
"20C2-8A Fab fragment (clone SJ-p2-39) (Fab, V domains shown) VH: QVTLKESGPALVKPTQTLTLTCTFSGFSLSTSGMGVGWIRQPPGKALEWLAHIWWDDDKSYNPSLKSRLTISKDTSKNQVVLTMTNMDPVDTATYYCARRQLGLRSIDAMDYWGQGTTVTVSS VL: DVVMTQSPLSLPVTPGEPASISCRSSQSILHSNGNTYLEWYLQKPGQSPQLLIYKVSNRFSGVPDRFSGSGSGTDFTLKISRVEAEDVGVYYCLQTTRVPLTFGQGTKLEIKR",–,–,13 nM,14 nM
"20C2-9A Fab fragment (clone SJ-p2-51) (Fab, V domains shown) VH: QVTLKESGPALVKPTQTLTLTCTFSGFSLSTSGMGVGWIRQPPGKALEWLAHIWWDDDKSYNPSLKSRLTISKDTSKNQVVLTMTNMDPVDTATYYCARRQLGLRSIDAMDYWGQGTTVTVSS VL: DVVMTQSPLSLPVTPGEPASISCRSSQSILHSNGNTYLEWYLQKPGQSPQLLIYKVSNRFSGVPDRFSGSGSGTDFTLKISRVEAEDVGVYYCVQTSLVPLTFGQGTKLEIKR",–,–,40 nM,36 nM
"20C2-12A Fab fragment (clone 4P1-32) (Fab, V domains shown) VH: QVTLKESGPALVKPTQTLTLTCTFSGFSLSTSGMGVGWIRQPPGKALEWLAHIWWDDDKSYNPSLKSRLTISKDTSKNQVVLTMTNMDPVDTATYYCARRQLGLRSIDAMDYWGQGTTVTVSS VL: DVVMTQSPLSLPVTPGEPASISCRSSQSILHSNGNTYLEWYLQKPGQSPQLLIYKVSNRFSGVPDRFSGSGSGTDFTLKISRVEAEDVGVYYCLQSSLVPLTFGQGTKLEIKR",–,–,238 nM,617 nM
"20C2-13A Fab fragment (clone 4p1-20) (Fab, V domains shown) VH: QVTLKESGPALVKPTQTLTLTCTFSGFSLSTSGMGVGWIRQPPGKALEWLAHIWWDDDKSYNPSLKSRLTISKDTSKNQVVLTMTNMDPVDTATYYCARRQLGLRSIDAMDYWGQGTTVTVSS VL: DVVMTQSPLSLPVTPGEPASISCRSSQSILHSNGNTYLEWYLQKPGQSPQLLIYKVSNRFSGVPDRFSGSGSGTDFTLKISRVEAEDVGVYYCLQTSNVPLTFGQGTKLEIKR",–,–,567 nM,94 nM
"20C2-18A Fab fragment (clone SJ-p1-9M) (Fab, V domains shown) VH: QVTLKESGPALVKPTQTLTLTCTFSGFSLSTSGMGVGWIRQPPGKALEWLAHIWWDDDKSYNPSLKSRLTISKDTSKNQVVLTMTNMDPVDTATYYCARRQLGLRSIDAMDYWGQGTTVTVSS VL: DVVMTQSPLSLPVTPGEPASISCRSSQSILHSNGNTYLEWYLQKPGQSPQLLIYKVSNRFSGVPDRFSGSGSGTDFTLKISRVEAEDVGVYYCMQSSFVPLTFGQGTKLEIKR",–,–,85 nM,126 nM
